Measured values reported in patent US20220275059A1 (HARBOUR ANTIBODIES, published 2022).

Biological target: peptide 24.end
Experiment: ELISA on coated peptide 24.end, A450 [B]

B1: 2.6h11 (antibody, V domains shown)
VH: EVQLVESGGGLVQPGRSLRLSCTASGFTFGDYVMSWFRQAPGKGLEWVGFIRSKAHGGTTEYAASVNGRFSISRDDSKTIAYLQMNSLKSEDTAVYYCTWLRNDYYYGMDVWGLGTTVTVSS
VL: DIMMTQSPLSLPVTPGEPASISCRSSQRLLHSNGYSYVDWYLQKPGQSPQLLIYLGSDRASGVPDRFSGSGSGTDFTLKISRVEAEDVGVYYCMQTLQTPWTFGQGTKVEIKR
binding result: no binding
